From patent publication US20240424125A1 come the findings set out here.

The target in assay [1] is human FRα on cells (human) (UniProt P15328). Put plainly: flow cytometry on JEG-3 cells (endogenous FRα), negative control. Details: unit not given here. Background: Flow cytometry measures light scatter and fluorescence of single cells or particles in a stream.
Assay [2] has the same target. As to the kind of experiment: flow cytometry on IGROV-1 cells (endogenous FRα), negative control. Also noted: unit not given here.

human FRα on cells (human), sequence (P15328 25-234 limits assumed): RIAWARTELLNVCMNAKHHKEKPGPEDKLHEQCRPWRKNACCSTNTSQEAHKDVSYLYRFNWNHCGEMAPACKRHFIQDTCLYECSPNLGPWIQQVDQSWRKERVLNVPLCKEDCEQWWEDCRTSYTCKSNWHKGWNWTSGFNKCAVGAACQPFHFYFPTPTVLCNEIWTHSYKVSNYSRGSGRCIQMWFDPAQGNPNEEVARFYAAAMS

Consider Human IgG (antibody), for which the Bmax was 144 in assay [1] and 208 in assay [2].
